Results as given in article PMC4102840 (Journal of Biomedical Research, 2014).

Target: T1, cyan fluorescent protein (CFP)-SR-A (class A scavenger receptor) (human, UniProt P21757 1-451)
T1 sequence (looked up): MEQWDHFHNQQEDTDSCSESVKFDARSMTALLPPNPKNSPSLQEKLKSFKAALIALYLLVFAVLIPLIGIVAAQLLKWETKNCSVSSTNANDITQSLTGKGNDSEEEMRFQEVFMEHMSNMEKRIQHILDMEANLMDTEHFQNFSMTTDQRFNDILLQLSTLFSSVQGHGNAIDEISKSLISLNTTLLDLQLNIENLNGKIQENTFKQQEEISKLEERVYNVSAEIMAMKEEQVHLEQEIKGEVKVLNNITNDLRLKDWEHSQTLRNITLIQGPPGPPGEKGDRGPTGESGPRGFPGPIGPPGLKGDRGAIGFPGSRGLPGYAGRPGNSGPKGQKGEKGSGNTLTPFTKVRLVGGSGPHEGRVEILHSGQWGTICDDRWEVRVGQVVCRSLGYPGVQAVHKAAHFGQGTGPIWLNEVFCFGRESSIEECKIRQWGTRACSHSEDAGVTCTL
Test: FRET or BRET

B1: yellow fluorescent protein (YFP)-GRP78 (78 kDa glucose-regulated protein) (natural protein)
chain: not shown
  FR (mean FRET ratio): 2.17
